Reference: US20250332277A1, “PROTEIN TYROSINE KINASE 7 ANTIBODIES AND ANTIBODY-DRUG CONJUGATES” (Eli Lilly and Company, priority 2024, published 2025)

Assays:
[1] = tested on: OV90-human PTK7 cells; assay: In vitro CDC assay with human serum complement; assay type: cell-based; settings: PTK-7 expressing OV90 cell line, 3 hours
Experimental: OV90 cell line was engineered to express high level of human PTK7, having antibody binding capacity of 500,000 (using MESF quantification kit, Bangs Laboratories). OV90-human PTK7 cells were added in white clear-bottom 96-well tissue culture plates in assay medium (1:1 MCDB105/Medium199+1×GlutaMax+15% Heat Inactivated Fetal Bovine Serum) and incubated in the incubator at 37° C. with 5% CO2 overnight. Next day, 50 μL/well antibodies were added at final working concentration from 200 nM, 1:3 serially diluted in assay medium and incubated at 37° C. with 5% CO2 for one hour. Diluted human serum complement (1:3) was then added at 50 μL/well in assay medium and incubated at 37° C. with 5% CO2 for 3 hours. Plate was read using CellTiter-Glo Luminescent Cell Viability Assay. 100 μL/well CellTiter-Glo reagent were incubated in plates at room temperature for 10 min. Luminescence was read on a SpectraMax M5e. RLUs (Relative Light Units) were obtained with SoftMax Pro 5.4. Percentage of cell killing was calculated against no treatment. Data was graphed and analyzed using GraphPad Prism version 9.5.1.

[2] = tested on: NCI-H446 human lung cancer cells; assay: Cell surface binding by flow cytometry, NCI-H446 (medium expression); assay type: cell-based; settings: Cofetuzumab max MFI set at 100%
Experimental: (§1) Certain PTK-7 antibodies of the present disclosure were tested for cell surface binding to three PTK-7 expressing tumor cell lines. Cell lines were selected to represent high, medium, and low receptor densities. OV90-PTK-7, overexpressing engineered ovarian tumor line representing high expression, NCI-H446 human lung cancer cells representing medium endogenous expression and OVCAR-3 human ovarian cancer cells representing low endogenous expression. […] OV90 parental cells and Namalwa-luc-GFP cells were selected as the PTK-7 negative cell lines. Antibody binding was quantified via flow cytometry and both the EC50 of the binding curves and the maximum binding MFI for each antibody were recorded.
(§2) Cells were dissociated using non-enzymatic dissociation buffer for 5 min at 37° C. Cells were counted and aliquoted to a V-bottom polypropylene 96-well plate at 10^5 cells/well. Cells were centrifuged at 1800 rpm×3 min and the supernatant discarded. […]
(§3) Cells were acquired on an Attune Cytpix Cytometer and FCS files generated using Attune™ Cytometric Software (v. 6.0.1). FCS files were then analyzed on FlowJo (v10.8.1). […] Finally, dead cells positive for staining with Zombie Green were excluded and the MFIs of live, Alexa647 positive cells were quantified. Data was graphed and analyzed on GraphPad Prism (v10.1.1).

[3] = tested on: OV90-PTK-7; assay: Cell surface binding by flow cytometry, OV90-PTK-7 (high expression); assay type: cell-based, human; settings: Cofetuzumab max MFI set at 100%
Experimental: as §1, §2, §3

[4] = tested on: OVCAR-3 human ovarian cancer cells; assay: Cell surface binding by flow cytometry, OVCAR3 (low expression); assay type: cell-based; settings: Cofetuzumab max MFI set at 100%
Experimental: as §1, §2, §3

[5] = tested on: HeLa PTK-7-eGFP overexpressing engineered cells; assay: Internalization / lysosomal trafficking by pHrodo fluorescence imaging; assay type: cell-based, human; settings: 6 μg/ml (40 nM)
Experimental: Single clone HeLa PTK-7-eGFP overexpressing engineered cells were plated at 5,000 cells per well in a 384-well plate (PhenoPlate 384-well, black, optically clear flat-bottom, tissue-culture treated, PerkinElmer 6057308) in complete culture medium (DMEM, +10% FBS+Glutamax+Pen/Strep). Next day, the cells were treated with 6 μg/ml (40 nM) ADCs or antibodies and pHrodo labeling reagent (Zenon™ pHrodo™ iFL IgG labeling reagents, Catalog number: Z25612, Invitrogen™) with concentration of 6 μg/mL (120 nM). The ADCs or antibodies was mixed with pHrodo labeling reagent for at least 10 min prior to adding to the cells. Then, the cells were imaged using the Opera Phenix Plus high-content screening system every 90 min up to 24 hours. Data were processed and analyzed in Harmony and Microsoft Excel and graphed in GraphPad Prism.

[6] = tested on: Namalwa-Luc-GFP cells co-cultured with OV90-PTK-7; assay: Bystander effect on Namalwa-Luc-GFP co-cultured with OV90-PTK-7 (ONE-Glo); assay type: cell-based; settings: OV90-PTK-7 + Namalwa-Luc-GFP, ratio 2:1; 5-days treatment; Namalwa-Luc-GFP killing
Experimental: (§4) In flat clear bottom 96-well plates, OV90-PTK-7: Namalwa-Luc-GFP clone cells were mixed and seeded at a total of 3000 cells/well/100 μL with a ratio of 2:1 in culture medium (1:1 MCDB105: Medium 199+15% Heat Inactivated Fetal Bovine Serum+1×Glutamax). Namalwa-Luc-GFP cells were negative for PTK-7 expression. Plates were incubated at 37° C. with 5% CO2 overnight. Next day, ADCs were added at final working concentration from 50 nM, 1:4 serially diluted in culture medium. Plates were covered with Breathe-Easy® sealing membrane. Plates were read after 5-days treatment using ONE-Glo™ Luciferase Assay System. 100 μL/well ONE-Glo™ Assay reagent was incubated in plates at room temperature for 10 min. Luminescence was read in the SpectraMax M5e. RLUs (Relative Light Units) were obtained with SoftMax Pro 5.4. Percentage of Namalwa-Luc-GFP killing was calculated against no treatment as 0%. Data was graphed and analyzed using Graphpad Prism version v10.1.1. IC50 was determined via log (inhibitor) vs. response (three parameters) curve fitting for ADC cytotoxicity.

[7] = tested on: OVCAR-3; assay: ADC cytotoxicity (CellTiter-Glo) on low PTK-7 expressing cells; assay type: cell-based, human; settings: 7 days treatment
Experimental: OVCAR3 cells were seeded in white clear-bottom 96-well tissue culture plates in culture medium (OVCAR3: ATCC modified RPMI 1640+1× GlutaMax+20% Heat Inactivated Fetal Bovine Serum+10 μg/mL bovine insulin). Cells were incubated at 37° C. with 5% CO2 overnight. Next day, ADCs were added at final working concentration from 200 nM, 1:4 serially diluted in culture medium. Plates were covered with Breathe-Easy® sealing membrane and incubated at 37° C. with 5% CO2. Plates were read after 7 days treatment using CellTiter-Glo Luminescent Cell Viability Assay. 100 μL/well CellTiter-Glo reagent were incubated in plates at room temperature for 10 min. Luminescence was read in the SpectraMax M5e. RLUs (Relative Light Units) were obtained with SoftMax Pro 5.4. Percentage of cell killing was calculated against no treatment as 0%. Data was graphed and analyzed using Graphpad Prism version v10.1.1. IC50 was determined via log (inhibitor) vs. response-variable slope (four parameters) curve fitting.

[8] = tested on: Namalwa-Luc-GFP cells co-cultured with NCI-H446; assay: Bystander effect on Namalwa-Luc-GFP co-cultured with NCI-H446 (ONE-Glo); assay type: cell-based; settings: ratio 9:1, 7-days treatment, Namalwa-Luc-GFP killing
Experimental: as §4
In flat clear bottom 96-well plates, NCI-H446: Namalwa-Luc-GFP clone cells were mixed and seeded at a total of 5000 cells/well/100 μL with a ratio of 9:1 in culture medium (RPMI 1640+10% Heat Inactivated Fetal Bovine Serum+1× Glutamax+1 mM sodium pyruvate). […] Plates were read after 7-days treatment using ONE-Glo™ Luciferase Assay System.

[9] = tested on: OVCAR3; assay: OVCAR3 tumor xenograft model; assay type: in vivo, mice; settings: OVCAR3 (Day 61); single intravenous dose 2 mg/kg
Experimental: Tumors were measured biweekly using a digital caliper.

B1: Cofetuzumab: humanized anti-PTK-7 IgG1 antibody (hu6M024) with the sequence as disclosed in WO2012112943 (antibody, chains of the INN, looked up, V domains shown)
VH: QVQLVQSGPEVKKPGASVKVSCKASGYTFTDYAVHWVRQAPGKRLEWIGVISTYNDYTYNNQDFKGRVTMTRDTSASTAYMELSRLRSEDTAVYYCARGNSYFYALDYWGQGTSVTVSS
VL: EIVLTQSPATLSLSPGERATLSCRASESVDSYGKSFMHWYQQKPGQAPRLLIYRASNLESGIPARFSGSGSGTDFTLTISSLEPEDFAVYYCQQSNEDPWTFGGGTKLEIK
- CDC potential [1]: did not show CDC potential
- % of Cofetuzumab (Average Max MFI) [2]: 100%
- % of Cofetuzumab (Average Max MFI) [3]: 100%
- % of Cofetuzumab (Average Max MFI) [4]: 100%
- pHrodo intensity signal at 24 hrs ([5]; Antibodies): 2.44 ± 0.14

B2: Cofetuzumab-Pelidotin: ADC with a cleavable valine-citrulline linker, auristatin-0101 as the payload with a drug-to-antibody ratio (DAR) of 4 (conjugate, chains of the INN, looked up)
VH: B1 VH
VL: B1 VL
modifications: pelidotin: vc linker, auristatin-0101, DAR 4
- IC50 [6]: 1.5 nM
- IC50 [7]: 2.53 nM
- IC50 [8]: 3.18 nM
- Mean tumor volume [9]: 352.26 mm^3
- pHrodo intensity signal at 24 hrs ([5]; ADCs): 1.71 ± 0.06

B3: Ab1: fully human PTK-7 antibody, human IgG1-AAS (L234A/L235A/D265S), kappa; HC SEQ ID NO: 2, LC SEQ ID NO: 3 (antibody)
heavy: EVQLVESGGGLVKPGGSLRLSCAASGFTFSSYIMNWVRQAPGKGLEWVSSISSSSTFIYYADSVKGRFTISRDNAKNSLYLQMNSLRAEDTAVYYCAKGFDYWGQGTLVTVSSASTKGPSVFPLAPSSKSTSGGTAALGCLVKDYFPEPVTVSWNSGALTSGVHTFPAVLQSSGLYSLSSVVTVPSSSLGTQTYICNVNHKPSNTKVDKRVEPKSCDKTHTCPPCPAPEAAGGPSVFLFPPKPKDTLMISRTPEVTCVVVSVSHEDPEVKFNWYVDGVEVHNAKTKPREEQYNSTYRVVSVLTVLHQDWLNGKEYKCKVSNKALPAPIEKTISKAKGQPREPQVYTLPPSREEMTKNQVSLTCLVKGFYPSDIAVEWESNGQPENNYKTTPPVLDSDGSFFLYSKLTVDKSRWQQGNVFSCSVMHEALHNHYTQKSLSLSPGK
light: DIQLTQSPSFLSASVGDRVTITCRASQDISSYLVWYQQKPGKAPKLLIYAASTLQSGVPSRFSGSGSGTEFTLTISSLQPEDFATYYCQQLNTYPRTFGQGTKVEIKRTVAAPSVFIFPPSDEQLKSGTASVVCLLNNFYPREAKVQWKVDNALQSGNSQESVTEQDSKDSTYSLSSTLTLSKADYEKHKVYACEVTHQGLSSPVTKSFNRGEC
- pHrodo intensity signal at 24 hrs ([5]; Antibodies): 3.00 ± 0.1

B4: Ab4: fully human PTK-7 antibody, human IgG1-AAS (L234A/L235A/D265S), kappa; HC SEQ ID NO: 32, LC SEQ ID NO: 33 (antibody)
heavy: EVQLVESGGGLVKPGGSLRLSCAASGFTFSSYSMNWVRQAPGKGLEWVSSIDSSSSFIYYADSVKGRFTISRDNAKNSLYLQMNSLRAEDTAVYYCARGTGLFDFWGQGTLVTVSSASTKGPSVFPLAPSSKSTSGGTAALGCLVKDYFPEPVTVSWNSGALTSGVHTFPAVLQSSGLYSLSSVVTVPSSSLGTQTYICNVNHKPSNTKVDKRVEPKSCDKTHTCPPCPAPEAAGGPSVFLFPPKPKDTLMISRTPEVTCVVVSVSHEDPEVKFNWYVDGVEVHNAKTKPREEQYNSTYRVVSVLTVLHQDWLNGKEYKCKVSNKALPAPIEKTISKAKGQPREPQVYTLPPSREEMTKNQVSLTCLVKGFYPSDIAVEWESNGQPENNYKTTPPVLDSDGSFFLYSKLTVDKSRWQQGNVFSCSVMHEALHNHYTQKSLSLSPGK
light: EIVLTQSPGTLSLSPGERATLSCRASQSFSSSYLAWYQQKPGQAPRLLIYGASSRATGIPDRFSGSGSGTDFTLTISRLEPEDFAVYYCQQYGRTPWTFGQGTKVEIKRTVAAPSVFIFPPSDEQLKSGTASVVCLLNNFYPREAKVQWKVDNALQSGNSQESVTEQDSKDSTYSLSSTLTLSKADYEKHKVYACEVTHQGLSSPVTKSFNRGEC
- pHrodo intensity signal at 24 hrs ([5]; Antibodies): 2.83 ± 0.18
